Experimental data reported in article doi:10.1101/2024.09.21.614250 (bioRxiv, 2024).

What was measured:
[1] = molecular target: T1, Shp1^tSH2 (aa4-215), C-terminally SNAP-tag-fused, SC505-labeled (human, UniProt P29350 4-215, Snap-Cell505 star (SC505) label on the SNAP-tag); test: FRET or BRET
T1 sequence: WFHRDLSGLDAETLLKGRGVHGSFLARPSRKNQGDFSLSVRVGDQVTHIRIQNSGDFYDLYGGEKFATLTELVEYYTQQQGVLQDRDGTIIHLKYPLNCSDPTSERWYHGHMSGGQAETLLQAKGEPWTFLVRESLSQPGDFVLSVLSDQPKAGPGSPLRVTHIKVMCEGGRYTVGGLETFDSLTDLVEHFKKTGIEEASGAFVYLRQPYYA

[2] = molecular target: T2, Shp2^tSH2 (aa5-218), C-terminally SNAP-tag-fused, SC505-labeled (human, UniProt Q06124 5-218, Snap-Cell505 star (SC505) label on the SNAP-tag); test: FRET or BRET
T2 sequence: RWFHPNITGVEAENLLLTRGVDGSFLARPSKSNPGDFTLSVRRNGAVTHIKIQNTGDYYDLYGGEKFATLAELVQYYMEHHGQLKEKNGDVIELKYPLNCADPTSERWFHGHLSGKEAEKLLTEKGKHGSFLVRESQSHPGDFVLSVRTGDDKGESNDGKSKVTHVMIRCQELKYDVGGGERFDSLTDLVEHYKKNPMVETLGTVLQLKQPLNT

B1: His-tagged huPD1 ICD WT, phosphorylated by Lck (domain or fragment)
chain: CSRAARGTIGARRTGQPLKEDPSAVPVFSVDYGELDFQWREKTPEPPVPCVPEQTEYATIVFPSGMGTSSPARRGSADGPRSAQPLRPEDGHCSWPL
modifications: phosphorylated by Lck on the LUV after ATP addition (sites not stated for this assay)
B1 was tested, and the binding result [1] was “binds” and the Kd [2] was 76 nM.

B2: His-tagged moPD1 ICD WT, phosphorylated by Lck (domain or fragment)
chain: CSTSMSEARGAGSKDDTLKEEPSAAPVPSVAYEELDFQGREKTPELPTACVHTEYATIVFTEGLGASAMGRRGSADGLQGPRPPRHEDGHCSWPL
modifications: phosphorylated by Lck on the LUV after ATP addition (sites not stated for this assay)
With B2 the binding result [1] was “binds” and the Kd [2] was 220 nM.
